Publication doi:10.1101/2020.12.08.415398 (bioRxiv, 2020)
Read-outs that look alike come from different tables or passages of the source.

Columns and labels:
[1] = target: T1, GPR133 (ADGRD1) C-terminal fragment (CTF) with C-terminal TwinStrep tag, from C-terminally tagged wild-type … (human); test: pull-down
T1 chain: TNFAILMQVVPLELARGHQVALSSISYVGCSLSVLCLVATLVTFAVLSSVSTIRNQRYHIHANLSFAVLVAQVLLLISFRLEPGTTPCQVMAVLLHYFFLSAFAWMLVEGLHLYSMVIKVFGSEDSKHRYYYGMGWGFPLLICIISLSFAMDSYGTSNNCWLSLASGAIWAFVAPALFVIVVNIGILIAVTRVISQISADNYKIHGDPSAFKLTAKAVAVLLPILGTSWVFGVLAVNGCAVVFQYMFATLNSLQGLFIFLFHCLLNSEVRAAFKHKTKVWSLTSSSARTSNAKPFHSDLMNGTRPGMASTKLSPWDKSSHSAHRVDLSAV

[2] = target: T1, GPR133 (ADGRD1) C-terminal fragment …; test: pull-down

NTF/CTF ratio in the elution (densitometry) [1]: 1 | NTF/CTF ratio in the elution (densitometry) [2]: 0.17
B1: GPR133 (ADGRD1) N-terminal fragment (NTF), from C-terminally TwinStrep-tagged wild-type GPR133 (domain or fragment, human)
chain: VYSRSQDHPGFQVLASASHYWPLENVDGIHELQDTTGDIVEGKVNKGIYLKEEKGVTLLYYGRYNSSCISKPEQCGPEGVTFSFFWKTQGEQSRPIPSAYGGQVISNGFKVCSSGGRGSVELYTRDNSMTWEASFSPPGPYWTHVLFTWKSKEGLKVYVNGTLSTSDPSGKVSRDYGESNVNLVIGSEQDQAKCYENGAFDEFIIWERALTPDEIAMYFTAAIGKHALLSSTLPSLFMTSTASPVMPTDAYHPIITNLTEERKTFQSPGVILSYLQNVSLSLPSKSLSEQTALNLTKTFLKAVGEILLLPGWIALSEDSAVVLSLIDTIDTVMGHVSSNLHGSTPQVTVEGSSAMAEFSVAKILPKTVNSSHYRFPAHGQSFIQIPHEAFHRHAWSTVVGLLYHSMHYYLNNIWPAHTKIAEAMHHQDCLLFATSHLISLEVSPPPTLSQNLSGSPLITVHLKHRLTRKQHSEATNSSNRVFVYCAFLDFSSGEGVWSNHGCALTRGNLTYSVCRCTHL
modifications: glycosylated (nine N-linked glycosylation sites predicted within the NTF; positions not given)
